Here are results for eleven molecules from patent publication US7408028B2, “Peptides, antibodies thereto, and their use in treatment of central nervous system, damage” (Sinapore General Hospital Pte Ltd., priority 2002, dated 2008).

In experiment [1] the target is T1, TNR-EGFL (Homo sapiens, UniProt Q92752).
T1 construct: GST; made in house
T1 sequence (Q92752 125-329): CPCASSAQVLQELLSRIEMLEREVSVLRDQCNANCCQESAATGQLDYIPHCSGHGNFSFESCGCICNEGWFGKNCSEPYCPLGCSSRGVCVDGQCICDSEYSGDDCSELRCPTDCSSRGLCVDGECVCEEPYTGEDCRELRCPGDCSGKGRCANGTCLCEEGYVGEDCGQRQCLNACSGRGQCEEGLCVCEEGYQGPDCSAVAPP
The experiment can be described thus: Phage display panning (Ph.D-7 library), clones identified by ELISA and sequencing. The note with it: target TNR-EGFL, 3-4 rounds of affinity selection. The class given is binding. As for the experimental part: (§1) Purification of TN-R, MAG and Nogo from adult mouse brains was performed by immumoaffinity chromatography as previously described (Pesheva, P et al, 1989). Generation and purification of the recombinant domains of TN-R, MAG, Nogo as fusion proteins with GST were performed as previously described (Xiao Z C et al, 1996). All these proteins were used as phage binding targets for rapid screening, using the Ph. D-7TM phage display peptide library kit (New England Biolabs, Ltd) according to the manufacturer's instructions.
(§2) Briefly, a library of phages, displaying different peptide sequences, was exposed to a plate coated with the target protein. Unbound phage was washed away and specifically bound phage was eluted by lowering pH. The eluted pool of phage was amplified, and the process was repeated 3-4 times.
(§3) The peptide-encoding sequences of the specific phage clones were determined by automated sequencing. The sequences of peptides which bound specifically to the targeted proteins were obtained.
(§4) Exemplary 7-mer peptide-endcoding sequences are shown below. “n” refers to the number of isolated phages displaying a peptide having the sequence shown (though there was of course some variability in the encoding nucleic acid sequences, owing to the degeneracy of the genetic code). “SIN” is an abbreviation for “SEQ ID NO.” and refers to the peptide sequence. The SEQ ID NOS of the nucleic acid sequences from the top to the bottom of the table are as follows: SEQ ID NO: 28, SEQ ID NO: 29, SEQ ID NO: 30, SEQ ID NO: 31, SEQ ID NO: 32, SEQ ID NO: 29, SEQ ID NO: 33. SEQ ID NO: 28, SEQ ID NO: 34, SEQ ID NO: 35.
On the technique in general: In an ELISA, binding on a coated surface is turned into a signal by an enzyme label.

Experiment [2] has as its target T2, Nogo-66 (Homo sapiens, UniProt Q9NQC3).
T2 sequence (Q9NQC3 1055-1120): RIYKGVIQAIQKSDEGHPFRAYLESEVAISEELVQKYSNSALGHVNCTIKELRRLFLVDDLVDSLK
The description is as above. The conditions noted are these: target Nogo-66, 3-4 rounds of affinity selection. Details: GST; made in house. The class given is binding. How it is done: as §1, §2, §3, §4

Experiment [3] concerns the target T3, MAG (Mus musculus, UniProt P20917).
T3 construct: from tissue; host or cells: adult mouse brain
T3 sequence (P20917 20-627): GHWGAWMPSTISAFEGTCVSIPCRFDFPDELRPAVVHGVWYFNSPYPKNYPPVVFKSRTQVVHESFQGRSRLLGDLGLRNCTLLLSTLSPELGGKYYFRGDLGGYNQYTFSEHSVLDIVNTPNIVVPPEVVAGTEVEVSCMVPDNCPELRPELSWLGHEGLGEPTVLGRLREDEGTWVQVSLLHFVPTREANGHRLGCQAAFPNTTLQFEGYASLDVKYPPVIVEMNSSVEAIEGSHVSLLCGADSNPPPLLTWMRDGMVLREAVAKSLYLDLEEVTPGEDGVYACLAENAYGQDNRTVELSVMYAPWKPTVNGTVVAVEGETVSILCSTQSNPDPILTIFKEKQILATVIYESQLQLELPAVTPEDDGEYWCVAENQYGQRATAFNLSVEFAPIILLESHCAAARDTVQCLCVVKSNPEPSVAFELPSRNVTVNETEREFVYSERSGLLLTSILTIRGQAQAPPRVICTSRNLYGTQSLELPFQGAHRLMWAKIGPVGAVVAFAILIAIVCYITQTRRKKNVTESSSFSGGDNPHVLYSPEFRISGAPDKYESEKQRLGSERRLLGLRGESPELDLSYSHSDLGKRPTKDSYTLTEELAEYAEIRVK
Described as above. In kind it is binding. The conditions noted are these: target MAG, 3-4 rounds of affinity selection. As for the experimental part: as §1, §2, §3, §4

Experiment [4] deals with TNR-EGFL. Description: Phage blocking of the inhibitory effect on NG108 cell adhesion. In kind it is cell-based. The note with it: peptide displayed on phage, 24 hours. How it is done: (§5) NG108 cells were plated on poly-DL-ornithine-treated tissue culture petri dish as single-cell suspensions. Specific phages that display the Nogo66-, MAG- and TNR-binding peptides identified above were added to the cell culture. Cells were maintained for 24 hours before fixation and staining with toluidine blue. Cell adhesion was determined as previously described.

The target in experiment [5] is T3, MAG. The experiment is described as above. The class given is cell-based. The conditions noted are these: peptide displayed on phage, 24 hours. How it is done: as §5
Experiment [6] addresses T2, Nogo-66. The experiment is described as above. The class given is cell-based. Details: made in house. The conditions noted are these: peptide displayed on phage, 24 hours. How it is done: as §5
Experiment [7] relates to NG108 cells. Description: Repulsion assay on coated Nogo domain substrates. In kind it is cell-based, mouse neuroblastoma—rat glioma hybrid cells. The conditions noted are these: GST as control. How it is done:
NG108 cells (mouse neuroblastoma—rat glioma hybrid cells, commercially available from the American Tissue Type Culture Collection, Manassas, Va., USA, under accession number ATCC HB-12317) were plated on coated substrates using Nogol-25, Nogol-50, Nogol-66 and GST-Nogo-66 as well as GST as control. Generation and purification of the recombinant domains of Nogo, either alone or as fusion proteins with GST, were performed as previously described (Xiao Z C et al, 1996).

Experiment [8] has as its system NG108 cells. The experiment can be described thus: Neurite outgrowth assay on coated Nogo domain substrates. The class given is cell-based, mouse neuroblastoma—rat glioma hybrid cells. The conditions noted are these: coated substrate, GST as control. As for the experimental part: NG108 cells were plated on coated substrates using Nogol-25, Nogol-50, Nogol-66, and GST-Nogo-66 as well as GST as control.

Experiment [9] deals with NG108 cells. The experiment can be described thus: Neuronal cell adhesion to protein spots on nitrocellulose-coated dishes. In kind it is cell-based, mouse neuroblastoma—rat glioma hybrid cells. The note with it: spots 5 μM GST-Nogo66, 100 μM Nogo66, Nogol-50, Nogol-25; 12 hours; p<0.05. As for the experimental part: Tissue culture petri dishes (Becton Dickinson) with a diameter of 3.5 cm were coated with methanol-solubilized nitrocellulose according to Lagenaur and Lemmon (1987) and air-dried under a sterile hood. Then the petri dishes were incubated with PBS containing 5 μg/ml poly-DL-ornithine for 2 hours at 37° C. Subsequently, the dishes were washed three times with PBS and dried under a sterile hood.
Protein spots (1.5 μl of 5 μM GST, 5 μM GST-Nogo66, 100 μM Nogo66, 100 μM Nogol-50 or 100 μM Nogol-25) were applied to the nitrocellulose-coated surfaces of the petri dishes and incubated for 2 hours at 37° C. in a humidified atmosphere. Subsequently, the spots were washed three times with PBS. The dishes were then flooded with PBS containing 2% heat-inactivated fatty acid-free BSA (Sigma) and incubated overnight to block residual non-specific protein binding sites.
Then, the dishes were washed with PBS and NG108 cells were plated in 2 ml of Dulbecco's modified Eagle's medium containing 10% fetal bovine serum at a density of 2.5×10^5 cells/ml and incubated at 37° C. in a humidified atmosphere. After 12 hours, the dishes were gently washed three times with PBS and the cells fixed by flooding with PBS containing 2.5% glutaraldehyde. After fixation, cultures were stained with 0.5% toluidine blue (Sigma) in 2.5% sodium carbonate. […]
Cells adhering to the various spots were photographed and counted. […]

Experiment [10] has as its system postnatal day 1 hippocampal neurons. The note with it: coated protein; cited from earlier work.

Take “GSLPHSL (From a phage library that displays random 7-mers)”: the “n, number of isolated phages displaying the peptide” value (from here on “n, number”) with TNR-EGFL [1] is recorded as “GSLPHSL (n = 1)”; with Nogo-66 [2], “GSLPHSL (n = 8)”; with Nogo-66 [2] (listed as SEQ ID NO. 2) it was 8.
As for “HHMPHDK (From a phage library that displays random 7-mers)”, the “n, number” value is recorded as “HHMPHDK (n = 1)” with TNR-EGFL [1] and 1 with TNR-EGFL [1] (listed as SEQ ID NO. 5).
As to “HSIPDNI (From a phage library that displays random 7-mers)”, the “n, number” value with TNR-EGFL [1] was “HSIPDNI (n = 3)”; in the experiment with TNR-EGFL [1] (listed as SEQ ID NO. 4) it was 3.
As for “QLPLMPR (From a phage library that displays random 7-mers)”, the “n, number” value with MAG [3] was “QLPLMPR (n = 5)”; with MAG [3] (listed as SEQ ID NO. 7), 5.
In the case of “TQLFPPQ (From a phage library that displays random 7-mers)”, the “Block of the inhibitory effect of TNR-EGFL on NG108 cell binding” value was “able to block” with TNR-EGFL [4] and “block” in the experiment with TNR-EGFL [4] (listed as SEQ ID NO. 3). Moreover, the figures for the “n, number” value with MAG [3], in the experiment with TNR-EGFL [1] and in the experiment with TNR-EGFL [1] (listed as SEQ ID NO. 3) were “TQLFPPQ (n = 7)”, “TQLFPPQ (n = 18)” and 18, respectively.
For “YLTQPQS (From a phage library that displays random 7-mers)”, the “Block of the inhibitory effect of MAG on NG108 cell binding” value is “able to block” with MAG [5] and “block” with MAG [5] (listed as SEQ ID NO. 1). In addition, the “n, number” value with MAG [3] is “YLTQPQS (n = 19)”; in the experiment with MAG [3] (listed as SEQ ID NO. 1) it was 19; with Nogo-66 [2], “YLTQPQS (n = 43)”; with Nogo-66 [2] (listed as SEQ ID NO. 1), 43. In addition, the “Block of the inhibitory effect of Nogo-66 on NG108 cell binding” value is recorded as “able to block” with Nogo-66 [6] and “block” with Nogo-66 [6] (listed as SEQ ID NO. 1).
For “YTTPPSP (From a phage library that displays random 7-mers)”, the “n, number” value in the experiment with TNR-EGFL [1] was “YTTPPSP (n = 1)”; with TNR-EGFL [1] (listed as SEQ ID NO. 6) it was 1.

B1: Nogol-66: recombinant domain of Nogo (66-residue extracellular domain) used as coated substrate (protein)
chain: T2 sequence (Q9NQC3 1055-1120)
modifications: not fully specified
notes: recombinant domain of Nogo (66-residue extracellular domain) used as coated substrate
Turning to B1, in the experiment with NG108 cells [7], the “NG108 cells repelled from coated substrate” value is listed as “repelled significantly”. Further, the “Neurite outgrowth of NG108 cells inhibited” value with NG108 cells [8] is given as “inhibited significantly”. In addition, in the experiment on NG108 cells [9], the “NG108 cell counts adhering to protein spot compared to GST” value was “significantly reduced”.

B2: GST-Nogo-66: recombinant Nogo-66 domain as fusion protein with GST (protein)
chain: T2 sequence (Q9NQC3 1055-1120)
modifications: also: fused to GST
notes: recombinant Nogo-66 domain as fusion protein with GST
Regarding B2, the “NG108 cells repelled from coated substrate” value in the experiment on NG108 cells [7] was “repelled significantly”. The “Neurite outgrowth of NG108 cells inhibited” value in the experiment with NG108 cells [8] is “inhibited significantly”. Besides, in the experiment with NG108 cells [9], the “NG108 cell counts adhering to protein spot compared to GST” value is recorded as “significantly reduced”.

B3: rMAG: coated recombinant MAG (protein, UniProt P20916 20-626, looked up)
Myelin-associated glycoprotein: GHWGAWMPSSISAFEGTCVSIPCRFDFPDELRPAVVHGVWYFNSPYPKNYPPVVFKSRTQVVHESFQGRSRLLGDLGLRNCTLLLSNVSPELGGKYYFRGDLGGYNQYTFSEHSVLDIVNTPNIVVPPEVVAGTEVEVSCMVPDNCPELRPELSWLGHEGLGEPAVLGRLREDEGTWVQVSLLHFVPTREANGHRLGCQASFPNTTLQFEGYASMDVKYPPVIVEMNSSVEAIEGSHVSLLCGADSNPPPLLTWMRDGTVLREAVAESLLLELEEVTPAEDGVYACLAENAYGQDNRTVGLSVMYAPWKPTVNGTMVAVEGETVSILCSTQSNPDPILTIFKEKQILSTVIYESELQLELPAVSPEDDGEYWCVAENQYGQRATAFNLSVEFAPVLLLESHCAAARDTVQCLCVVKSNPEPSVAFELPSRNVTVNESEREFVYSERSGLVLTSILTLRGQAQAPPRVICTARNLYGAKSLELPFQGAHRLMWAKIGPVGAVVAFAILIAIVCYITQTRRKKNVTESPSFSAGDNPPVLFSSDFRISGAPEKYESERRLGSERRLLGLRGEPPELDLSYSHSDLGKRPTKDSYTLTEELAEYAEIRVK
Take B3: in experiment [10], the “Axonal growth cones collapsed” value is given as 60%.

B4: denatured rMAG: denatured recombinant MAG (protein, UniProt P20916 20-626, looked up)
Myelin-associated glycoprotein: B3 Myelin-associated glycoprotein
modifications: denatured recombinant
notes: denatured recombinant MAG
Turning to B4, the “Axonal growth cones collapsed” value in experiment [10] is “not observed”.
